Measurements published in the supplement of paper PMC10065799, “High-throughput profiling of sequence recognition by tyrosine kinases and SH2 domains using bacterial peptide display” (eLife, 2023).

Legend:
[1] = target: Jak2 (UniProt O60674); assay: phosphorylation enrichment, bacterial display (enrichment ratio); higher = better substrate or ligand; peptides without Tyr show the background
[2] = target: EPHB2 (UniProt P29323); assay: as above
[3] = test system: c-Abl (mouse); assay: as above
[4] = test system: c-Src; assay: as above
[5] = test system: AncSZ; assay: as above
[6] = target: FGFR1 (UniProt P11362); assay: as above
[7] = target: Fes (UniProt P07332); assay: as above
[8] = target: FGFR3 (UniProt P22607); assay: as above
[9] = target: Fyn (UniProt P06241); assay: as above
[10] = target: MERTK (UniProt Q12866); assay: as above
[11] = target: Hck (UniProt P08631); assay: as above
[12] = test system: Fer (mouse); assay: as above
[13] = target: EPHB1 (UniProt P54762); assay: as above
[14] = target: Grb2 SH2 (UniProt P62993); assay: SH2 binding enrichment of the phosphorylated peptide, bacterial display (enrichment ratio); higher = better substrate or ligand; peptides without Tyr show the background
[15] = target: SHP2-C SH2; assay: as above
[16] = target: c-Src SH2; assay: as above
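Wherever SH2 binding enrichment of the phosphorylated peptide, bacterial display is given: peptide library displayed on the E. coli surface as eCPX fusions, selected cells deep-sequenced, score is each peptide's frequency after selection divided by its frequency in the input.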
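Wherever phosphorylation enrichment, bacterial display is given: 11-residue human phosphosite peptides and single-mutation variants displayed on the E. coli surface, counted by deep sequencing, each peptide's frequency after selection divided by its frequency in the unselected input library; frequency after pTyr selection over input frequency; kinase dosed for 20-30% of maximal phosphorylation in three min.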

Sequence of FGFR1 (P11362 whole entry, looked up): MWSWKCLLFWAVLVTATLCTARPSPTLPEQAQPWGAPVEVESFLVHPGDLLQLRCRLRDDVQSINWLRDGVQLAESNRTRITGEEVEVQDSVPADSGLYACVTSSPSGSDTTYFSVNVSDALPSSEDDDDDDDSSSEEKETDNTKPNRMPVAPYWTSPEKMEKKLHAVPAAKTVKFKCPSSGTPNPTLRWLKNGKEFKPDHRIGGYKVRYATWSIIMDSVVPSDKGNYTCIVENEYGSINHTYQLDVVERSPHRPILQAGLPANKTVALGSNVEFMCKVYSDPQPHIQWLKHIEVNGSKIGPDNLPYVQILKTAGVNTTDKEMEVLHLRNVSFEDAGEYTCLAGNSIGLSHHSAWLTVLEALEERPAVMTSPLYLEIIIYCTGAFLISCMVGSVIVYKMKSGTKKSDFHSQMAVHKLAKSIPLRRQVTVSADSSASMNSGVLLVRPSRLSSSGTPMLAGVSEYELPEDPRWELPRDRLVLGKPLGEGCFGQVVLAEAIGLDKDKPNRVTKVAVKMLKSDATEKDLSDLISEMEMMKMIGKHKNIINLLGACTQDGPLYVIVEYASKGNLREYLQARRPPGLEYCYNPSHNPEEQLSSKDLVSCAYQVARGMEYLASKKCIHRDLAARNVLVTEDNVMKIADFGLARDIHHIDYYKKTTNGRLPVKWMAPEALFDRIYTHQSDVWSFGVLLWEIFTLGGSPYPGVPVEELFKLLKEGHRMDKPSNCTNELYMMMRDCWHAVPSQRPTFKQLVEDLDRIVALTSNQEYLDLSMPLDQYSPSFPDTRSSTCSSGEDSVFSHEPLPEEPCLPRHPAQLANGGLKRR
Sequence of Fes (P07332 whole entry, looked up): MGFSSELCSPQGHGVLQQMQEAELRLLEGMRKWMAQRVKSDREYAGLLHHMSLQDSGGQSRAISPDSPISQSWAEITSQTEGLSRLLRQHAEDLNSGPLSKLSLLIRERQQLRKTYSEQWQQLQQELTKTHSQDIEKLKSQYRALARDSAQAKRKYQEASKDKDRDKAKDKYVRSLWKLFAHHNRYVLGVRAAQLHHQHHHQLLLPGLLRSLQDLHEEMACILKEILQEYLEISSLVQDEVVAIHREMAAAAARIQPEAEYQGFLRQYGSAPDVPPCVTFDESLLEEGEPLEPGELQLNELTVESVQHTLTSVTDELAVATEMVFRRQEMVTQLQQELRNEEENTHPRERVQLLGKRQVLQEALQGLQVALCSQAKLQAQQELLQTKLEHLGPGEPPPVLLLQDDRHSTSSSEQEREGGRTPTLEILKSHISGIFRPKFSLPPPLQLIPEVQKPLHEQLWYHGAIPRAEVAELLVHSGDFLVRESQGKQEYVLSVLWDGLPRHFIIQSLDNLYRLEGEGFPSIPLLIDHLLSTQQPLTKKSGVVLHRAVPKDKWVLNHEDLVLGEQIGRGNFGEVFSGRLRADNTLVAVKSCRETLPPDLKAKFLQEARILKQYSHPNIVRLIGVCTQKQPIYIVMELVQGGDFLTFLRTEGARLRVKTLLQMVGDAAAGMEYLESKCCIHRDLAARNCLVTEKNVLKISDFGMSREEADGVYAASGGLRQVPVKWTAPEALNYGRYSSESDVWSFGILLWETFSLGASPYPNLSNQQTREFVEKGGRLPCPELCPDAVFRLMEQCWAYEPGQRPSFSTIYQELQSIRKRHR
Sequence of Jak2 (O60674 whole entry, looked up): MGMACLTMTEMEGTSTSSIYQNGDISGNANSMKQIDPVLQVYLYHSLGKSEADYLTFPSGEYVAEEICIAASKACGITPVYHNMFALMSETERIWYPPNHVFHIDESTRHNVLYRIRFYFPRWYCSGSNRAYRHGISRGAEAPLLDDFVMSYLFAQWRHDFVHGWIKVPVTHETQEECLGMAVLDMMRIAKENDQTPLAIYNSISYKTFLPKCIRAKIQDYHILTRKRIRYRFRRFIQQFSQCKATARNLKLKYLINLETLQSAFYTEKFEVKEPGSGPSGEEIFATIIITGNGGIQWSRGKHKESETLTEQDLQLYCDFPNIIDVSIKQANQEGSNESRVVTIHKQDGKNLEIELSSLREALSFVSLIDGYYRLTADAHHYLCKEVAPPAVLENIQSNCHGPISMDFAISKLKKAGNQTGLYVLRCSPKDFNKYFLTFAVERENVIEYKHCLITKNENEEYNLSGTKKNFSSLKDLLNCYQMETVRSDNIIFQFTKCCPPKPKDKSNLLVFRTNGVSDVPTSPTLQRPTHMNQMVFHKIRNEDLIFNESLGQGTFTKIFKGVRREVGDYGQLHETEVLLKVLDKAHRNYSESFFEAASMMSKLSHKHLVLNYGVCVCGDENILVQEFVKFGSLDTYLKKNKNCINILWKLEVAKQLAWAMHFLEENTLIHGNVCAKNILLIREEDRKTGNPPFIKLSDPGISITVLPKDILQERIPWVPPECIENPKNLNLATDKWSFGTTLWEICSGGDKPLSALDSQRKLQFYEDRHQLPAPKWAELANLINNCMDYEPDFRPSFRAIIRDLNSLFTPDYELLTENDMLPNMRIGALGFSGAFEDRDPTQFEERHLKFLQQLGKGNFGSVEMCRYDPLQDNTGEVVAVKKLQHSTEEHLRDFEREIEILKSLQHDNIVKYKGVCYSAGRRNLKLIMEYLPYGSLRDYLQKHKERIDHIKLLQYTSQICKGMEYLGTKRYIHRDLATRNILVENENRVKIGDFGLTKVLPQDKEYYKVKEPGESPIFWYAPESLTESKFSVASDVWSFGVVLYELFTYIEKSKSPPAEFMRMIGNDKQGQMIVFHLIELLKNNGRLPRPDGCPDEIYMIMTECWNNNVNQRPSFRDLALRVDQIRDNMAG
Sequence of EPHB1 (P54762 whole entry, looked up): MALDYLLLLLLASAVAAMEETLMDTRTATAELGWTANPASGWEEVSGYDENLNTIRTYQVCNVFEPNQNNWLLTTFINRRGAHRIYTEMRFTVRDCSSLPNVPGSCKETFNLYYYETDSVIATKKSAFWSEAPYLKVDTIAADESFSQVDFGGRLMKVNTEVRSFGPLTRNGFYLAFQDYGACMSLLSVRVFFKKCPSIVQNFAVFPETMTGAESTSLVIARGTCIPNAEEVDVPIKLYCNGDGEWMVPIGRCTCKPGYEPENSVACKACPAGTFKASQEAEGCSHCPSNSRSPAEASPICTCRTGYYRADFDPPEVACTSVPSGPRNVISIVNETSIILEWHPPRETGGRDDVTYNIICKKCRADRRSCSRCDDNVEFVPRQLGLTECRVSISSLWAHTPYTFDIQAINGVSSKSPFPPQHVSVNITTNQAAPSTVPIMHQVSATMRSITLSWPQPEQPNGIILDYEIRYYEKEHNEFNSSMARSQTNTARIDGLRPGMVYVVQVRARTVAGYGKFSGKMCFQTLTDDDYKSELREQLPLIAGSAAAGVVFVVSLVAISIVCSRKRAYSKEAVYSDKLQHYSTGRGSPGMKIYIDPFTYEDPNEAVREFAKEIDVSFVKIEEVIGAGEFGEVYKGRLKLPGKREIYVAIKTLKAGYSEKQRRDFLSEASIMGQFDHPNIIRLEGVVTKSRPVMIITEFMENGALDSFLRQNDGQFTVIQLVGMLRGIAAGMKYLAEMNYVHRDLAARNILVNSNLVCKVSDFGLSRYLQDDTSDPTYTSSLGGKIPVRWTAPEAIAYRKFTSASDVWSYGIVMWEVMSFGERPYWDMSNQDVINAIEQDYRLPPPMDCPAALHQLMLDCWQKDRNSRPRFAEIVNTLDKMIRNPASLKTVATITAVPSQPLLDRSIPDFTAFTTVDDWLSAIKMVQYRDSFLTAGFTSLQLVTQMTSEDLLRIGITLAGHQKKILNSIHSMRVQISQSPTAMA
Sequence of EPHB2 (P29323 whole entry, looked up): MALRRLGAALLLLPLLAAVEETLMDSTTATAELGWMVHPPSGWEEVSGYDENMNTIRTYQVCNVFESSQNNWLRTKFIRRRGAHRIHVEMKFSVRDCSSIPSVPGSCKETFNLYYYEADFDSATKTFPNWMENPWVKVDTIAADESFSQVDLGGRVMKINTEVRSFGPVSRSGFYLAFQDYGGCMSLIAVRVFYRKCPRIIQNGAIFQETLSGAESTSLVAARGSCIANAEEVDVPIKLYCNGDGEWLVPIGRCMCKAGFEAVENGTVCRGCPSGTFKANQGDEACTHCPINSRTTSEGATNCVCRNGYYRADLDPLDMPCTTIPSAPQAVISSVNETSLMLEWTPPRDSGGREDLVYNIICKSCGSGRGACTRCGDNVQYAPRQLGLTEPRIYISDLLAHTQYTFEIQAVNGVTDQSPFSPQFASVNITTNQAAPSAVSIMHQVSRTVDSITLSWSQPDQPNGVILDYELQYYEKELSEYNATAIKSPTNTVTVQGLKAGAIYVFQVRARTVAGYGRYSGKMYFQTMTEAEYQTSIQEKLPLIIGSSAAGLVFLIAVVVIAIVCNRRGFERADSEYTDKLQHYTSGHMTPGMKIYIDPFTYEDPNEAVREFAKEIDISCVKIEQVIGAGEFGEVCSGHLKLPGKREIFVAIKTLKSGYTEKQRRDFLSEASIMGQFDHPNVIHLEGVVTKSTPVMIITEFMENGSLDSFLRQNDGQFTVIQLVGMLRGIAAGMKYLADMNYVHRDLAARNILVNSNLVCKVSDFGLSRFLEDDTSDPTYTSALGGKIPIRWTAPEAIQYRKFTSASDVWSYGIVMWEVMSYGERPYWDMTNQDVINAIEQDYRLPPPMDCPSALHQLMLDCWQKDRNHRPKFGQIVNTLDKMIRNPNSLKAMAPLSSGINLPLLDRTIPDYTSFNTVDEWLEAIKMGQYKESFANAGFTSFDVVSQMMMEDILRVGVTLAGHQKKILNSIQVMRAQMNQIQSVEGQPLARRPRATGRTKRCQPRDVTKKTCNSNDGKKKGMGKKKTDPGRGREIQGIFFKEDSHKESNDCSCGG

Sequence	SH2 binding enrichment [14]	SH2 binding enrichment [15]	SH2 binding enrichment [16]	phosphorylation enrichment [1]	phosphorylation enrichment [2]	phosphorylation enrichment [3]	phosphorylation enrichment [4]	phosphorylation enrichment [5]	phosphorylation enrichment [6]	phosphorylation enrichment [7]	phosphorylation enrichment [8]	phosphorylation enrichment [9]	phosphorylation enrichment [10]	phosphorylation enrichment [11]	phosphorylation enrichment [12]	phosphorylation enrichment [13]
VRVQLYDPDYM [CYP4A22_Y100]	1.08	1.45	0.545	1.15	0.776	0.79	0.615	1.56	0.538	1.27	0.741	0.493	0.887	0.807	0.599	1.27
RKIMGYSIRTI [IDS_Y490_I485R]	0.944	0.718	0.654	0.62	0.556	0.759	0.666	0.699	0.664	0.796	0.524	0.591	0.535	0.624	0.619	0.676
DSGKLYALDGL [INO80_Y1104_V1108G]	0.92	0.525	0.567	0.912	0.833	0.699	1.17	0.829	0.581	1.02	0.715	0.763	2.2	0.828	0.719	0.723
GISDEYHVIRR [GCDH_Y398_H403R]	0.833	0.889	0.835	0.719	0.541	0.607	0.621	0.983	1.46	0.792	0.881	0.517	0.457	1.5	0.471	0.529
DISEPYEVYRI [IRF8_Y107_K108E]	0.76	0.401	0.638	0.912	0.634	0.862	3.97	2.01	0.736	1.05	0.624	1.55	0.522	1.28	9.63	0.425
IIWDSYTTNKM [GNB4_Y85]	0.941	0.886	0.438	0.873	0.656	0.596	0.321	1.3	0.575	1.21	0.671	0.682	0.401	0.506	0.527	0.68
KLQKKYGPISS [CYP17A1_Y60_Y64S]	0.873	0.594	0.554	0.364	0.317	0.399	0.364	0.381	0.338	0.553	0.493	0.343	0.378	0.375	0.289	0.32
NLSVPYDSSLK [ABCC8_Y1353_R1352P]	0.765	0.735	0.489	0.588	0.509	0.516	0.508	0.601	0.445	0.68	0.503	0.41	0.426	0.445	0.418	0.451

The next lines start with results.

SH2 binding enrichment [14]	SH2 binding enrichment [15]	SH2 binding enrichment [16]	Sequence	phosphorylation enrichment [1]	phosphorylation enrichment [2]	phosphorylation enrichment [3]	phosphorylation enrichment [4]	phosphorylation enrichment [5]	phosphorylation enrichment [6]	phosphorylation enrichment [7]	phosphorylation enrichment [8]	phosphorylation enrichment [9]	phosphorylation enrichment [10]	phosphorylation enrichment [11]	phosphorylation enrichment [12]	phosphorylation enrichment [13]
0.733	0.577	0.445	SGDDGYAKDAK [TENM4_Y1530]	0.456	0.623	0.456	0.409	0.836	0.501	0.741	0.562	0.564	0.386	0.584	0.494	0.454
0.873	0.688	0.623	THPFLYLTLEI [MLH1_Y293_S295T]	1.97	0.889	1.22	0.548	1.71	0.652	2	1.23	0.473	0.524	0.556	0.778	0.889
0.611	0.53	0.581	DYLEKYYKFGC [NNMT_Y24_S29C]	1.25	0.802	1.04	0.78	1.44	0.855	1.28	1.14	0.588	0.541	0.539	0.563	0.824
1.01	1.08	0.808	QQLVAYFSKHT [SRC_Y232_A237T_YF]	1.75	0.724	0.646	0.513	0.898	0.562	1.09	0.942	0.629	0.382	0.699	0.595	0.676
0.821	0.701	0.854	TYEYKYPEGSS [TGM4_Y440]	1.05	0.492	0.777	0.525	1.32	0.517	1.11	0.755	0.394	0.414	0.449	0.392	0.526
0.788	0.632	0.506	LVPPRYVRSEI [PKP2_Y194_A195V]	0.685	0.645	0.58	0.555	0.612	0.469	0.94	0.605	0.431	0.588	0.321	0.522	0.538
